Source: paper PMC6234845 (Biochemistry, 2018)

Tests used:
[1] = target: Src13-GCN4-EGFP / Src13-GCN4-mCH; test: PIE-FCCS
[2] = target: the molecule itself; test: PIE-FCCS

fc, fraction correlated [1]	Molecule	fc (mean), fraction correlated [2]	fc (median), fraction correlated [2]
0.13	Src13-GCN4-EGFP / Src13-GCN4-mCH		
	wild type rod opsin-EGFP / rod opsin-mCherry (receptor, mouse, UniProt P15409 1-348, looked up) MNGTEGPNFYVPFSNVTGVVRSPFEQPQYYLAEPWQFSMLAAYMFLLIVLGFPINFLTLYVTVQHKKLRTPLNYILLNLAVADLFMVFGGFTTTLYTSLHGYFVFGPTGCNLEGFFATLGGEIALWSLVVLAIERYVVVCKPMSNFRFGENHAIMGVVFTWIMALACAAPPLVGWSRYIPEGMQCSCGIDYYTLKPEVNNESFVIYMFVVHFTIPMIVIFFCYGQLVFTVKEAAAQQQESATTQKAEKEVTRMVIIMVIFFLICWLPYASVAFYIFTHQGSNFGPIFMTLPAFFAKSSSIYNPVIYIMLNKQFRNCMLTTLCCGKNPLGDDDASATASKTETSQVAPA	0.114	0.107
